Residue numbers refer to the chain shown, from its start.
B1: 442S9: modified anti-ErbB3 antibody from lead antibody 442P (CDR mutagenesis) (antibody, V domains shown)
VH: EVQLLESGGGLVQPGGSLRLSCAASGFTFSDYDMSWVRQAPGKGLEWVSSIYPDSGSTYYADSVQGRFTISRDNSKNTLYLQMNSLRAEDTAVYYCAKDRHMWPEGPFDYWGQGTLVTVSS
VL: QSVLTQPPSASGTPGQRVTISCSGSSSNIGSNSGSWYQQLPGTAPKLLIYADNHRPSGVPDRFSGSKSGTSASLAISGLRSEDEADYYCAAWDSSLSGYVFGGGTKLTVLG
modifications: Heavy chain variable region of antibody 442S9; Light chain variable region of antibody 442S9
B2: 472M1: modified anti-ErbB3 antibody from lead antibody 472P (CDR mutagenesis) (antibody, V domains shown)
VH: EVQLLESGGGLVQPGGSLRLSCAASGFTFSWYDLSWVRQAPGKGLEWVSGISYDGGNTYYADSVKGRFTISRDNSKNTLYLQMNSLRAEDTAVYYCARDPSWCLQDLCYYADGMDVWGQGTLVTVSS
VL: B1 VL with G34V, N53S, H54N, A90G, A91S, S94Y
modifications: Heavy chain variable region of antibody 472M1; Light chain variable region of antibody 472M1
B3: 442M11: modified anti-ErbB3 antibody from lead antibody 442P (CDR mutagenesis) (antibody, V domains shown)
VH: B1 VH with S50T, Y52E, S55Y, Y59L, R100L, W103G
VL: B1 VL with G34V, A51S, A90H, Y99D, V100F
modifications: Heavy chain variable region of antibody 442M11; Light chain variable region of antibody 442M11
B4: 442M10: modified anti-ErbB3 antibody from lead antibody 442P (CDR mutagenesis) (antibody, V domains shown)
VH: B1 VH with Y59D, R100L
VL: B1 VL with G34V, H54F
modifications: Heavy chain variable region of antibody 442M10; Light chain variable region of antibody 442M10
B5: 451M2: modified anti-ErbB3 antibody from lead antibody 451P (CDR mutagenesis) (antibody, V domains shown)
VH: EVQLLESGGGLVQPGGSLRLSCAASGFTFSDYDMSWVRQAPGKGLEWVSAIYYDSGSIYYADSAKGRFTISRDNSKNTLYLQMNSLRAEDTAVYYCAKDRLFASDSTFDYWGQGTLVTVSS
VL: B1 VL with S26P, S31N, G34V, S35T, A51Y, N53S, A90G, A91S, S94A, S97N
modifications: Heavy chain variable region of antibody 451M2; Light chain variable region of antibody 451M2
B6: 472S1: modified anti-ErbB3 antibody from lead antibody 472P (CDR mutagenesis) (antibody, V domains shown)
VH: B2 VH with L34M, S35T
VL: B1 VL with G34V, N53S, H54N, A90G, A91S, S94Y
modifications: Heavy chain variable region of antibody 472S1; Light chain variable region of antibody 472S1
B7: 451M3: modified anti-ErbB3 antibody from lead antibody 451P (CDR mutagenesis) (antibody, V domains shown)
VH: B5 VH with D31H
VL: B1 VL with S26P, S31N, G34V, S35T, A51Y, N53S, A90G, A91S, S94A, S97N
modifications: Heavy chain variable region of antibody 451M3; Light chain variable region of antibody 451M3
B8: 451M4: modified anti-ErbB3 antibody from lead antibody 451P (CDR mutagenesis) (antibody, V domains shown)
VH: B5 VH with D31Y
VL: B1 VL with S26P, S31N, G34V, S35T, A51Y, N53S, A90G, A91S, S94A, S97N
modifications: Heavy chain variable region of antibody 451M4; Light chain variable region of antibody 451M4
B9: 472S4: modified anti-ErbB3 antibody from lead antibody 472P (CDR mutagenesis) (antibody, V domains shown)
VH: B2 VH with L34I, S35A
VL: B1 VL with G34V, N53S, H54N, A90G, A91S, S94Y
modifications: Heavy chain variable region of antibody 472S4; Light chain variable region of antibody 472S4
B10: 442M4: modified anti-ErbB3 antibody from lead antibody 442P (CDR mutagenesis) (antibody, V domains shown)
VH: B1 VH with S50T, Y52D, P53L, T58I, R100L, W103G
VL: B1 VL with G34V, A51S, A90V, A91G, S97Y, Y99H
modifications: Heavy chain variable region of antibody 442M4; Light chain variable region of antibody 442M4
B11: 472S2: modified anti-ErbB3 antibody from lead antibody 472P (CDR mutagenesis) (antibody, V domains shown)
VH: B2 VH with S35A
VL: B1 VL with G34V, N53S, H54N, A90G, A91S, S94Y
modifications: Heavy chain variable region of antibody 472S2; Light chain variable region of antibody 472S2
B12: 442M3: modified anti-ErbB3 antibody from lead antibody 442P (CDR mutagenesis) (antibody, V domains shown)
VH: B1 VH
VL: B1 VL with H54W
modifications: Heavy chain variable region of antibody 442M3; Light chain variable region of antibody 442M3
B13: 442M6: modified anti-ErbB3 antibody from lead antibody 442P (CDR mutagenesis) (antibody, V domains shown)
VH: B1 VH with Y52E, Y59D
VL: B1 VL with H54W
modifications: Heavy chain variable region of antibody 442M6; Light chain variable region of antibody 442M6
B14: 442M8: modified anti-ErbB3 antibody from lead antibody 442P (CDR mutagenesis) (antibody, V domains shown)
VH: B1 VH with R100L, W103G
VL: B1 VL with G34V, A51S, A90H, S97Y, G98V, Y99D
modifications: Heavy chain variable region of antibody 442M8; Light chain variable region of antibody 442M8
B15: 442M5: modified anti-ErbB3 antibody from lead antibody 442P (CDR mutagenesis) (antibody, V domains shown)
VH: B1 VH with S50T, Y52D, P53L, T58I, R100L, W103G
VL: B1 VL with G34V, A51S, A90H, S97W, Y99D
modifications: Heavy chain variable region of antibody 442M5; Light chain variable region of antibody 442M5
B16: 472S3: modified anti-ErbB3 antibody from lead antibody 472P (CDR mutagenesis) (antibody, V domains shown)
VH: B2 VH with L34M
VL: B1 VL with G34V, N53S, H54N, A90G, A91S, S94Y
modifications: Heavy chain variable region of antibody 472S3; Light chain variable region of antibody 472S3
B17: 451M1: modified anti-ErbB3 antibody from lead antibody 451P (CDR mutagenesis) (antibody, V domains shown)
VH: B5 VH with A103M
VL: B1 VL with S26P, S31N, G34V, S35T, A51Y, N53S, A90G, A91S, S94A, S97N
modifications: Heavy chain variable region of antibody 451M1; Light chain variable region of antibody 451M1

Biological target: T1, recombinant human ErbB3 protein (Homo sapiens, UniProt P21860)
T1 construct: purchased R&D systems
Assay: Binding affinity of anti-ErbB3 antibody to human ErbB3 protein (Octet QK384)
Settings: immobilized human ErbB3; for ka (association constant): binding phase about 900 seconds; for kd (dissociation constant): dissociation phase about 1200 seconds
Method: In particular, the binding affinities of the anti-ErbB3 antibodies to the recombinant human ErbB3 protein (R&D systems) and the antigen-antibody interactive dynamics were measured using an Octet® QK384 system (Pall Life Sciences). After activation of carboxyl groups in 20 mM of 1-ethyl-3-(3-dimethylaminopropyl)carbodiimide hydrochloride (EDC) and 40 mM of N-hydroxysulfosuccinimide (sulfo-NHS) solution on an AR2G sensor (ForteBio), 10 μg/mL of human ErbB3 protein solution diluted with 10 mM of sodium acetate (pH 4.0) (ForteBio) was added to immobilize human ErbB3 protein onto the AR2G sensor. The AR2G sensor to which the human ErbB3 protein was immobilized was treated with 1 M of ethanolamine (ForteBio) to inactivate the remaining unreacted carboxyl groups.

Molecule | ka (association constant) | kd (dissociation constant)
B1 | 821000 M⁻¹ s⁻¹ | 5.87e-05 s⁻¹
B2 | 1.39e+06 M⁻¹ s⁻¹ | 1.74e-05 s⁻¹
B3 | 1.49e+06 M⁻¹ s⁻¹ | 8.09e-06 s⁻¹
B4 | 471000 M⁻¹ s⁻¹ | <1e-07 s⁻¹
B5 | 1.24e+06 M⁻¹ s⁻¹ | 1.56e-05 s⁻¹
B6 | 649000 M⁻¹ s⁻¹ | 3.33e-07 s⁻¹
B7 | 1.87e+06 M⁻¹ s⁻¹ | 2.3e-07 s⁻¹
B8 | 2.01e+06 M⁻¹ s⁻¹ | 1.23e-05 s⁻¹
B9 | 1.15e+06 M⁻¹ s⁻¹ | 1.09e-05 s⁻¹
B10 | 573000 M⁻¹ s⁻¹ | <1e-07 s⁻¹
B11 | 1.07e+06 M⁻¹ s⁻¹ | <1e-07 s⁻¹
B12 | 771000 M⁻¹ s⁻¹ | 2.62e-06 s⁻¹
B13 | 969000 M⁻¹ s⁻¹ | 1.95e-05 s⁻¹
B14 | 870000 M⁻¹ s⁻¹ | 2.23e-06 s⁻¹
B15 | 665000 M⁻¹ s⁻¹ | <1e-07 s⁻¹
B16 | 522000 M⁻¹ s⁻¹ | 1.43e-07 s⁻¹
B17 | 1.24e+06 M⁻¹ s⁻¹ | 3.08e-05 s⁻¹
